One block for each substance: values may come before it.
Tests used:
[1] = target: RAD18/RAD6 complex (full-length, purified) (human) (UniProt Q9NS91); assay: mass photometry
[2] = target: RAD6 WT (N-terminal histidine tag, purified alone) (human) (UniProt P63146); assay: ITC
[3] = target: His-tagged full length (FL) wildtype (WT) RAD18 (human) (UniProt Q9NS91); assay: AUC
[4] = target: His-tagged full length (FL) wildtype (WT) RAD18 (human) (UniProt Q9NS91); assay: mass photometry

Chain of His-tagged full length (FL) wildtype (WT) RAD18 (human) (Q9NS91 whole entry): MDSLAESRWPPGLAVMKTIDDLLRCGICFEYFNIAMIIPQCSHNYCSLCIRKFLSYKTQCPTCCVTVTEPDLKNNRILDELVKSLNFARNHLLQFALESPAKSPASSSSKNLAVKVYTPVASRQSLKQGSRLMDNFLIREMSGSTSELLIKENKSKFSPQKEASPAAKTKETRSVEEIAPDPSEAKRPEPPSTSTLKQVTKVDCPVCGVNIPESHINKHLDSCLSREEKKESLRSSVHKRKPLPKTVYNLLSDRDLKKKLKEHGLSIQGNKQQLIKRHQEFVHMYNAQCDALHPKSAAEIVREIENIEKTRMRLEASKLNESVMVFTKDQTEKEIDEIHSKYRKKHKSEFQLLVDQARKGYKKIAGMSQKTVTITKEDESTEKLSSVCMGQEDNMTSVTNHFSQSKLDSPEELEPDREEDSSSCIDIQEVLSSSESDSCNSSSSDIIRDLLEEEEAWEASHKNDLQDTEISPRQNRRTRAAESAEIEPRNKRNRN
Chain of His-tagged full length (FL) wildtype (WT) RAD18 (Q9NS91 whole entry): as above
Chain of RAD6 of the purified RAD18/RAD6 complex (P63146 whole entry, one chain of several): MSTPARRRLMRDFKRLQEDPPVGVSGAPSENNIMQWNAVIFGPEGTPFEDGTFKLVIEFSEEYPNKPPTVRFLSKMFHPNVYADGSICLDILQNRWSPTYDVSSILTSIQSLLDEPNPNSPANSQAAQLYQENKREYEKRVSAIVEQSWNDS
Chain of RAD18/RAD6 complex (full-length, purified) (human) (Q9NS91 whole entry, chain 1 of 2): as the sequence (Q9NS91 whole entry) above
Chain of RAD18/RAD6 complex (full-length, purified) (human) (P63146 whole entry, chain 2 of 2, further chain): as the sequence (P63146 whole entry, one chain of several) above
Chain of RAD6 WT (N-terminal histidine tag, purified alone) (human) (P63146 whole entry): as the sequence (P63146 whole entry, one chain of several) above
Chain of Full length MAGEA4 WT (N-terminal histidine tag) (P43358 whole entry): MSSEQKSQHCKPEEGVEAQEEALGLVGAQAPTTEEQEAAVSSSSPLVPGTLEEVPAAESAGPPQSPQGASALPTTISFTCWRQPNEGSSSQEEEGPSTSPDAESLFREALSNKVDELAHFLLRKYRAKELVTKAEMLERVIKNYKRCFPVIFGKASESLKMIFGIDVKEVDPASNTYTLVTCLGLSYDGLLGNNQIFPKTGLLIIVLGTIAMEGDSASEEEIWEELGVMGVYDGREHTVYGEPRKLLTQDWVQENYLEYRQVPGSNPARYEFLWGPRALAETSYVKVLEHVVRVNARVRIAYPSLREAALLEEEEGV

Substance: Full length MAGEA4 WT (N-terminal histidine tag) (from UniProt P43358 1-317) (natural protein)
stoichiometry N [1]: 1

Substance: RAD18 R6BD peptide (27 amino acid peptide containing amino acids 340-366 of RAD18) (from UniProt Q9NS91 340-366)
Kd [2]: 25.3 µM

stoichiometry N [3]: 2 | stoichiometry N [4]: 2
Substance: His-tagged full length (FL) wildtype (WT) RAD18 (from UniProt Q9NS91 1-495) (enzyme)

Substance: RAD6 of the purified RAD18/RAD6 complex (from UniProt P63146 1-152) (enzyme)
stoichiometry N (RAD6 per RAD18) [3]: 0.5 | stoichiometry N (RAD6 per RAD18) [4]: 0.5

— publication doi:10.1101/2023.12.08.570772
